The text below walks through data of patent publication US20130227716A1 (University of Washington, published 2013).

By Kd is commonly meant a measure of binding affinity in units of concentration.

The target in test [1] is COI1/ASK1 complex (full-length Arabidopsis thaliana COI1 co-expressed with ASK1) (Arabidopsis thaliana) (UniProt Q39255). The experiment in a line: cell-based or functional assay.
Test [2] addresses T1, COI1/ASK1 complex (full-length Arabidopsis thaliana COI1 co-expressed with ASK1) (Arabidopsis thaliana, UniProt Q39255 1-160).
T1 construct: mature; Purified from Hi5 insect cells; co-purifies with Ins(1,2,4,5,6)P5 cofactor; also called COI/ASK1; untreated COI1
T1 sequence 1: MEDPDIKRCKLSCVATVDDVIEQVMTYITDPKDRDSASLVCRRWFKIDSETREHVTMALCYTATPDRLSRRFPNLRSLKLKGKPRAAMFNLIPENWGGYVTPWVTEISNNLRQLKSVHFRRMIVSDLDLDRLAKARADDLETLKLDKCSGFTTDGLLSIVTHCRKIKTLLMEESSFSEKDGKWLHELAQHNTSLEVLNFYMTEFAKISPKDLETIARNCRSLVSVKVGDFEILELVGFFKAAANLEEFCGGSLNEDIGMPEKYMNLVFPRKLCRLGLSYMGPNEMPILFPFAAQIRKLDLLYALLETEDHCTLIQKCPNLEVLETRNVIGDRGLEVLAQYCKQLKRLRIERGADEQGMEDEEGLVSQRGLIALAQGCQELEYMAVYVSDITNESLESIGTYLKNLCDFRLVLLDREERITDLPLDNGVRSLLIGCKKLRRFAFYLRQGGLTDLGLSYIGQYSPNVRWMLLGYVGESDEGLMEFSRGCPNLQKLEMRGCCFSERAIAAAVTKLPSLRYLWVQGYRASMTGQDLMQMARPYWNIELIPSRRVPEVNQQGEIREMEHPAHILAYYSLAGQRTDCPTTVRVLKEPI
T1 sequence 2: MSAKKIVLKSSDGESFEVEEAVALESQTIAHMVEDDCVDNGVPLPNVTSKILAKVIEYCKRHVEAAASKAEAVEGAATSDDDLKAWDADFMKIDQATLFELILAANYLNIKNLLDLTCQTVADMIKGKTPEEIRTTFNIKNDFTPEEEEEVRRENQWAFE
The experiment in a line: 3H-coronatine radioligand binding with COI1/ASK1 and synthetic peptide.

In test [3] the target is T1, COI1/ASK1 complex (full-length …). The test can be described thus: saturation radioligand binding (3H-coronatine) with COI1/ASK1 and the synthetic peptide.
For test [4] the target is unchanged. The test can be described thus: cell-based or functional assay.
Test [5] has as its target T2, Arabidopsis thaliana COI1 (Arabidopsis thaliana, UniProt O04197 1-592).
T2 construct: also called wild-type COI1
T2 sequence: T1 sequence 1
The experiment in a line: crystal structure.

On to “full-length JAZ6 (from UniProt Q9C9E3 1-269)”, for which, in test [1], the KD of 3H-coronatine saturation binding to COI1/ASK1 in the presence of JAZ6 came out at 48 nM and the KD of 3H-coronatine saturation binding to the COI1/JAZ6 complex is 68 nM.

Turning to QQHQVVERIARRASLHRFFAKRKDRV [JAZ6 + 10 extension], the binding result in test [2] is “no binding”.

B1: JAZ1 + 5 extension (peptide)
peptide: ELPIARRASLHRFLEKRKDRV
notes: also called JAZ1 +5 extension peptide; JAZ1 degron +5 peptide
B1 gave a Kd in test [3] of 108 nM.

As to VERIARRASLHRFLEKRKDRV [JAZ1 + 5 extension from JAZ6], in test [2], the binding result is listed as “no binding”.

Regarding VERIARRASLHRFFAKRKDRV [JAZ6 + 5 extension], the binding result in test [2] was “no binding”.

Take AAAAARRASLHRFLEKRKDRV [JAZ1 + polyA extension]: the binding result in test [2] is “no binding”.

B2: JAZ1 + 6 extension + PY motif (peptide)
peptide: ELPIARRASLHRFLEKRKDRVTSKAPY
notes: also called JAZ1-extension +5+PY; JAZ1 +5 extension with the six C-terminal residues added back on
For the molecule B2, in test [2], the binding result is reported as “binds”.

B3: full-length JAZ1 (other)
chain: MSSSMECSEFVGSRRFTGKKPSFSQTCSRLSQYLKENGSFGDLSLGMACKPDVNGTLGNSRQPTTTMSLFPCEASNMDSMVQDVKPTNLFPRQPSFSSSSSSLPKEDVLKMTQTTRSVKPESQTAPLTIFYAGQVIVFNDFSAEKAKEVINLASKGTANSLAKNQTDIRSNIATIANQVPHPRKTTTQEPIQSSPTPLTELPIARRASLHRFLEKRKDRVTSKAPYQLCDPAKASSNPQTTGNMSWLGLAAEI
B3: in test [4], the “KD of 3H-coronatine saturation binding to COI1/ASK1 in the presence of JAZ1” value stood at 68 nM and the “KD of 3H-coronatine saturation binding to the COI1/JAZ1 complex” value was 48 nM.

For LPIARRASLHRFLEKRKDRV [JAZ1 + 4 extension], in test [2], the binding result is reported as “binds”.

In the case of YQKASMKRSLHSFLQKRSLRI [JAZ7 + 5 extension], the binding result in test [2] is listed as “no binding”.

B4: ASK1 (other, Arabidopsis thaliana, UniProt Q39255 1-160, looked up)
chain: T1 sequence 2
notes: mature
With B4, the binding result in test [5] is “binds”.
